Results taken from publication PMC12102759 (2025).

B1: PEX5 peptide 240-255 (Peroxisomal targeting signal 1 receptor), 16-mer library wild type / PEX14 Pex14 (PEX14 PEX14, residues 16-84) (parent complex)
chain 1: AEQWAAEFIQQQGTSD
chain 2: TPGSENVLPREPLIATAVKFLQNSRVRQSPLATRRAFLKKKGLTDEEIDMAFQQSGTAADEPSSLGPAT

Variants of: B1
Test: proteomic peptide phage display deep mutational scan (ProP-PD DMS): M13 P8 16-mer library selected against immobilised GST-tagged bait for four days (rounds), NGS of the eluted pools per day and pseudo-replica; bait immobilised on MaxiSorp plates (10 µg), library pre-cleared on GST, 2 h binding at 4 °C, five washes; one round per day, days 1-4; value from days 2 and 3

Going from chain 1 AEQWAAEFIQQFGTSD to chain 1 AEVWAAEFIQQQGTSD, the screen value falls from 0.00145 average fractional NGS count over selection days 2 and 3 (reads of this peptide / all reads for the bait, averaged over … to 0.000961 average fractional NGS count over selection days 2 and 3 (reads of this peptide / all reads for the bait, averaged over ….

First: chain 1 AEQWAAEFIQIQGTSD
Second: chain 1 AEQWANEFIQQQGTSD
The screen value of the first is lower: 0.00199 average fractional NGS count over selection days 2 and 3 (reads of this peptide / all reads for the bait, averaged over … for the first, 0.00234 average fractional NGS count over selection days 2 and 3 (reads of this peptide / all reads for the bait, averaged over … for the second.

Compared with chain 1 APQWAAEFIQQQGTSD, chain 1 WEQWAAEFIQQQGTSD is higher in screen value: 0.000798 average fractional NGS count over selection days 2 and 3 (reads of this peptide / all reads for the bait, averaged over … for the first, 0.00504 average fractional NGS count over selection days 2 and 3 (reads of this peptide / all reads for the bait, averaged over … for the second.

First: chain 1 AEQWAADFIQQQGTSD
Second: chain 1 AEQWAAEFIGQQGTSD
The screen value of the first is higher: 0.00269 average fractional NGS count over selection days 2 and 3 (reads of this peptide / all reads for the bait, averaged over … for the first, 0.00258 average fractional NGS count over selection days 2 and 3 (reads of this peptide / all reads for the bait, averaged over … for the second.

Compared with chain 1 AENWAAEFIQQQGTSD, chain 1 AEQWAAEMIQQQGTSD is lower in screen value: 0.00292 average fractional NGS count over selection days 2 and 3 (reads of this peptide / all reads for the bait, averaged over … for the first, 0.00109 average fractional NGS count over selection days 2 and 3 (reads of this peptide / all reads for the bait, averaged over … for the second.

Going from chain 1 AEQWAAEFIQQQGFSD to chain 1 AERWAAEFIQQQGTSD, the screen value falls from 0.00226 average fractional NGS count over selection days 2 and 3 (reads of this peptide / all reads for the bait, averaged over … to 0.000498 average fractional NGS count over selection days 2 and 3 (reads of this peptide / all reads for the bait, averaged over ….

Compared with chain 1 AWQWAAEFIQQQGTSD, chain 1 AEQWAAEFIQQQGTQD is higher in screen value: 0.000954 average fractional NGS count over selection days 2 and 3 (reads of this peptide / all reads for the bait, averaged over … for the first, 0.0029 average fractional NGS count over selection days 2 and 3 (reads of this peptide / all reads for the bait, averaged over … for the second.

Compared with chain 1 ATQWAAEFIQQQGTSD, chain 1 AEQWAAEFIQQEGTSD is lower in screen value: 0.00227 average fractional NGS count over selection days 2 and 3 (reads of this peptide / all reads for the bait, averaged over … for the first, 0.00182 average fractional NGS count over selection days 2 and 3 (reads of this peptide / all reads for the bait, averaged over … for the second.

Compared with chain 1 IEQWAAEFIQQQGTSD, chain 1 AEQWAAEFKQQQGTSD is lower in screen value: 0.000927 average fractional NGS count over selection days 2 and 3 (reads of this peptide / all reads for the bait, averaged over … for the first, 0.000873 average fractional NGS count over selection days 2 and 3 (reads of this peptide / all reads for the bait, averaged over … for the second.

First: chain 1 AEQWAAEFIVQQGTSD
Second: chain 1 AEQWAATFIQQQGTSD
The screen value of the first is higher: 0.00204 average fractional NGS count over selection days 2 and 3 (reads of this peptide / all reads for the bait, averaged over … for the first, 0.0012 average fractional NGS count over selection days 2 and 3 (reads of this peptide / all reads for the bait, averaged over … for the second.

First: chain 1 AEQWAAEFIQHQGTSD
Second: chain 1 AEQWASEFIQQQGTSD
The screen value of the first is higher: 0.00664 average fractional NGS count over selection days 2 and 3 (reads of this peptide / all reads for the bait, averaged over … for the first, 0.00105 average fractional NGS count over selection days 2 and 3 (reads of this peptide / all reads for the bait, averaged over … for the second.

Going from chain 1 AEQWAREFIQQQGTSD to chain 1 AEQWAAEFLQQQGTSD, the screen value falls from 0.00273 average fractional NGS count over selection days 2 and 3 (reads of this peptide / all reads for the bait, averaged over … to 0.000942 average fractional NGS count over selection days 2 and 3 (reads of this peptide / all reads for the bait, averaged over ….

First: chain 1 AEQWAAEFYQQQGTSD
Second: chain 1 AEQWAAEFIQQQGPSD
The screen value of the first is higher: 0.0023 average fractional NGS count over selection days 2 and 3 (reads of this peptide / all reads for the bait, averaged over … for the first, 0.00162 average fractional NGS count over selection days 2 and 3 (reads of this peptide / all reads for the bait, averaged over … for the second.

Compared with chain 1 ASQWAAEFIQQQGTSD, chain 1 AEWWAAEFIQQQGTSD is higher in screen value: 0.000804 average fractional NGS count over selection days 2 and 3 (reads of this peptide / all reads for the bait, averaged over … for the first, 0.00112 average fractional NGS count over selection days 2 and 3 (reads of this peptide / all reads for the bait, averaged over … for the second.

Compared with chain 1 AEQWAAEFMQQQGTSD, chain 1 AEQWAAQFIQQQGTSD is lower in screen value: 0.00443 average fractional NGS count over selection days 2 and 3 (reads of this peptide / all reads for the bait, averaged over … for the first, 0.00112 average fractional NGS count over selection days 2 and 3 (reads of this peptide / all reads for the bait, averaged over … for the second.

Going from chain 1 AEQWAALFIQQQGTSD to chain 1 AEQWAAEFIQQQGTGD, the screen value falls from 0.0199 average fractional NGS count over selection days 2 and 3 (reads of this peptide / all reads for the bait, averaged over … to 0.00221 average fractional NGS count over selection days 2 and 3 (reads of this peptide / all reads for the bait, averaged over ….

Going from chain 1 AEQWAAEFIQQQGQSD to chain 1 AEQWAAEFIQQQGNSD, the screen value falls from 0.000835 average fractional NGS count over selection days 2 and 3 (reads of this peptide / all reads for the bait, averaged over … to 0.000434 average fractional NGS count over selection days 2 and 3 (reads of this peptide / all reads for the bait, averaged over ….

First: chain 1 ADQWAAEFIQQQGTSD
Second: chain 1 AYQWAAEFIQQQGTSD
The screen value of the first is lower: 0.00048 average fractional NGS count over selection days 2 and 3 (reads of this peptide / all reads for the bait, averaged over … for the first, 0.00378 average fractional NGS count over selection days 2 and 3 (reads of this peptide / all reads for the bait, averaged over … for the second.

First: chain 1 AEQWAAEFIQQQGTTD
Second: chain 1 AEQWAAEFIQQLGTSD
The screen value of the first is higher: 0.00362 average fractional NGS count over selection days 2 and 3 (reads of this peptide / all reads for the bait, averaged over … for the first, 0.00232 average fractional NGS count over selection days 2 and 3 (reads of this peptide / all reads for the bait, averaged over … for the second.

Compared with chain 1 AEQWAAIFIQQQGTSD, chain 1 AEQWAAEFIQQQMTSD is lower in screen value: 0.000858 average fractional NGS count over selection days 2 and 3 (reads of this peptide / all reads for the bait, averaged over … for the first, 0.000519 average fractional NGS count over selection days 2 and 3 (reads of this peptide / all reads for the bait, averaged over … for the second.

First: chain 1 AEQWAAEFILQQGTSD
Second: chain 1 AEQWAAEFIQQVGTSD
The screen value of the first is higher: 0.00121 average fractional NGS count over selection days 2 and 3 (reads of this peptide / all reads for the bait, averaged over … for the first, 0.0011 average fractional NGS count over selection days 2 and 3 (reads of this peptide / all reads for the bait, averaged over … for the second.

Going from chain 1 AEQWADEFIQQQGTSD to chain 1 PEQWAAEFIQQQGTSD, the screen value falls from 0.0111 average fractional NGS count over selection days 2 and 3 (reads of this peptide / all reads for the bait, averaged over … to 0.000938 average fractional NGS count over selection days 2 and 3 (reads of this peptide / all reads for the bait, averaged over ….

Compared with chain 1 AEQWAAEFIQLQGTSD, chain 1 AEQWAAEFIQQQYTSD is lower in screen value: 0.0026 average fractional NGS count over selection days 2 and 3 (reads of this peptide / all reads for the bait, averaged over … for the first, 0.000307 average fractional NGS count over selection days 2 and 3 (reads of this peptide / all reads for the bait, averaged over … for the second.

Compared with chain 1 AEQWAAEFIQQQGTRD, chain 1 AEQWAAEFIQQQGTLD is lower in screen value: 0.00217 average fractional NGS count over selection days 2 and 3 (reads of this peptide / all reads for the bait, averaged over … for the first, 0.00083 average fractional NGS count over selection days 2 and 3 (reads of this peptide / all reads for the bait, averaged over … for the second.

Going from chain 1 AEQWRAEFIQQQGTSD to chain 1 AEQWAIEFIQQQGTSD, the screen value rises from 0.00499 average fractional NGS count over selection days 2 and 3 (reads of this peptide / all reads for the bait, averaged over … to 0.00623 average fractional NGS count over selection days 2 and 3 (reads of this peptide / all reads for the bait, averaged over ….

First: chain 1 HEQWAAEFIQQQGTSD
Second: chain 1 AEQWAAEFTQQQGTSD
The screen value of the first is higher: 0.0701 average fractional NGS count over selection days 2 and 3 (reads of this peptide / all reads for the bait, averaged over … for the first, 0.000404 average fractional NGS count over selection days 2 and 3 (reads of this peptide / all reads for the bait, averaged over … for the second.

Going from chain 1 AEQWAAEFINQQGTSD to chain 1 AEQWAAEFIQQQGESD, the screen value falls from 0.00173 average fractional NGS count over selection days 2 and 3 (reads of this peptide / all reads for the bait, averaged over … to 0.000967 average fractional NGS count over selection days 2 and 3 (reads of this peptide / all reads for the bait, averaged over ….

Going from chain 1 AEQWAAEFIQQQGWSD to chain 1 AEQWAAKFIQQQGTSD, the screen value rises from 0.000366 average fractional NGS count over selection days 2 and 3 (reads of this peptide / all reads for the bait, averaged over … to 0.000488 average fractional NGS count over selection days 2 and 3 (reads of this peptide / all reads for the bait, averaged over ….
